Values of other authors in publication PMC10565355.

Biological target: Fibrinogen (Homo sapiens) (UniProt P02671)
UniProt P02671, sequence (P02671 36-866, chain 1 of 3): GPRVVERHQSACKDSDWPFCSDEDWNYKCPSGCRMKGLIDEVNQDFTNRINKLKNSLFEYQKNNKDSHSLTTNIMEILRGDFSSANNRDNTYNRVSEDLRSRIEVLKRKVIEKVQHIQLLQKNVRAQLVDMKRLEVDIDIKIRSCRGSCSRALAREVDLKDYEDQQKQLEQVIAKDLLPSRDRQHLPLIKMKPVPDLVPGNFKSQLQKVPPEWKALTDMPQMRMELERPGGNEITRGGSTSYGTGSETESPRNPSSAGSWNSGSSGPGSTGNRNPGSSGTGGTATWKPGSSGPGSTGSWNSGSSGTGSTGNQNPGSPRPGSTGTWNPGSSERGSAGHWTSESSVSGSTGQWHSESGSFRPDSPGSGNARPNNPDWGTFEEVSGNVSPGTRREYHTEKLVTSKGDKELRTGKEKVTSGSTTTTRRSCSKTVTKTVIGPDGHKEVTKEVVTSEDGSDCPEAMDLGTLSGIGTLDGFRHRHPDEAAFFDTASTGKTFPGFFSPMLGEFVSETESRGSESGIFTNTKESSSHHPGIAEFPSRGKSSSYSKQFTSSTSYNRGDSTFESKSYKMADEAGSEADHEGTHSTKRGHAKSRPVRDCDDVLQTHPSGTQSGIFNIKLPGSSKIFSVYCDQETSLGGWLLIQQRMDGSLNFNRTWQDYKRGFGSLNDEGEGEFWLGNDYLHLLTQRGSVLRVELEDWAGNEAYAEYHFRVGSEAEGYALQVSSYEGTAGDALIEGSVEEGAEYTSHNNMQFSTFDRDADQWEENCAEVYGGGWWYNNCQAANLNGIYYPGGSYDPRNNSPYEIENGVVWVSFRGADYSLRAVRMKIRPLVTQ
UniProt P02671, sequence (P02675 45-491, chain 2 of 3, further chain): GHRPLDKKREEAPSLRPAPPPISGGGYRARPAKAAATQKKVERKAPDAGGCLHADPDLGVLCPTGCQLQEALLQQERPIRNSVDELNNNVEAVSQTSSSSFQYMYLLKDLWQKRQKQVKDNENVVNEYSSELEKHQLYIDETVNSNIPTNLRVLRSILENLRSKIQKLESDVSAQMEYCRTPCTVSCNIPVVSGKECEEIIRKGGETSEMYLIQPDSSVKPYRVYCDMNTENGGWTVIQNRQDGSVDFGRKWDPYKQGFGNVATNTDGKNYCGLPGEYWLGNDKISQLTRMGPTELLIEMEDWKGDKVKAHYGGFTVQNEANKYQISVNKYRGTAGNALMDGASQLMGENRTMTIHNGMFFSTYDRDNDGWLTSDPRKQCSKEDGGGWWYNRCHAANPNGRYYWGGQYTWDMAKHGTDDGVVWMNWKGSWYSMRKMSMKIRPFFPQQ
UniProt P02671, sequence (P02679 27-453, chain 3 of 3, further chain): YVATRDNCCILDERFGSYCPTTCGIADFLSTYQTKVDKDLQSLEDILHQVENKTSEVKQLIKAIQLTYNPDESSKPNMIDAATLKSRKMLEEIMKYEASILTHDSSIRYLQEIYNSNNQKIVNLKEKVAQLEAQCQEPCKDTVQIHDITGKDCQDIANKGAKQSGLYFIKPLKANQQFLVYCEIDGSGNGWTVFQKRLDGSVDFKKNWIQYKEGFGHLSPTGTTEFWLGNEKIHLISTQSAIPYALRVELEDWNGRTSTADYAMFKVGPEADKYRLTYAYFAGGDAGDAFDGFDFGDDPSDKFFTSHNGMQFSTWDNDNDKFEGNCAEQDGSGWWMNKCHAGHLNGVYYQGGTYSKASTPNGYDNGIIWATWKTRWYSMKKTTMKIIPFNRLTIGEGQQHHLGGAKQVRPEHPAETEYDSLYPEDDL

## Efb EfbA (from UniProt A6QG59)
  Kd: 1000 nM
